Experimental findings from patent publication US20260055206A1 (GENSUN BIOPHARMA, published 2026) are described below.

Positions count from the first letter of the chain named.

To fix the notation:
B1: DLL3.1 (humanized anti-DLL3 antibody) (antibody, V domains shown)
VH: QVQLVQSGAEVKKPGASVKVSCKASDYTFSNYYIEWVRQAPGQGLEWMGEILPGNGNTVYNEKFKDRVTMTVDTSTSTAYMELRSLRSDDTAVYYCARWGDYALFANWGQGTLVTVSS
VL: DIQMTQSPSTLSASVGDRVTITCKASQNVGTNVAWYQQKPGKAPKALIYSASYRYSGVPSRFSGSGSGTEFTLTISSLQPDDFATYYCQQYNSYPFTFGQGTKLEIK
notes: it was detected with anti-human IgG Fc
B2: DLL3.4 (humanized anti-DLL3 antibody) (antibody, V domains shown)
VH: B1 VH with S25T, T28I, N55T, A79V, R84S, D89E
VL: B1 VL with T10F, A46P, A51T, D81E, S93N, F96L, Q100G, L104V
notes: as for B1
B3: DLL3.3 (humanized anti-DLL3 antibody) (antibody, V domains shown)
VH: QVQLVQSGAEVKKPGASVKVSCKASGYTFTDYFMNWVRQAPGQGLEWMGVINPYNDITIYNQKFQGRVTMTVDRSTSTVYMELSSLRSEDTAVYYCAREGVLYDGYYEGAYWGQGTLVTVSS
VL: DIQLTQSPSFLSASVGDRVTITCKASQNVGIAVAWYQQKPGKAPKLLIYAASNRYTGVPSRFSGSGSGTEFTLTISSLQPEDFATYYCQQYSTYPYTFGQGTKLEIK
notes: as for B1

The target in this assay is T1, human DLL3 (over-expressed on CHO-K1 cells) (human, UniProt Q9NYJ7 27-618).
T1 construct: whole, on cells; also called huDLL3; Delta-like 3
T1 sequence (looked up): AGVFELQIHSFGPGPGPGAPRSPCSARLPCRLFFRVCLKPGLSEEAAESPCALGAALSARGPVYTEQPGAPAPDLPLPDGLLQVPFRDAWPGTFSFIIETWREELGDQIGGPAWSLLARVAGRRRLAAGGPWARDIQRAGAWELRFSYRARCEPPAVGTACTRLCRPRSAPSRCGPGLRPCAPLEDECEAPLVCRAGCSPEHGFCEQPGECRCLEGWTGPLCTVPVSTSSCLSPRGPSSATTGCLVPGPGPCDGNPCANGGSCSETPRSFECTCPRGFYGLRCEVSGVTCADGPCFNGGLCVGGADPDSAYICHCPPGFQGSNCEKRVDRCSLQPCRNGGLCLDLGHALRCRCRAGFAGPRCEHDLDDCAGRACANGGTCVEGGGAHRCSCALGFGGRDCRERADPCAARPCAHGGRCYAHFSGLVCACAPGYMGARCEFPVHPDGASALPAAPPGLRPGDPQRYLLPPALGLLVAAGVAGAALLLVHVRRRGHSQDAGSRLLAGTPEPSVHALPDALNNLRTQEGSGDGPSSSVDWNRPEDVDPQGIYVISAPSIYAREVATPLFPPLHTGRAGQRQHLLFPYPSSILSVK
The experiment in a line: flow cytometry (iQue) on CHO-K1 cells over-expressing human DLL3, PE anti-human IgG Fc secondary. On the procedure: To evaluate the ability of anti-DLL3 antibodies to bind, human serial dilutions of the anti-DLL3 antibodies were added to CHO-K1 cells (20,000 cells/well) over-expressing human or cyno DLL3. The mixtures were incubated at 4° C. for 20 minutes, washed 3 times, and stained with the secondary antibody, PE labeled F(ab′)2-Goat anti-human IgG Fc (Thermo H10104) at 4° C. for 20 minutes. Cells were washed and resuspended in 7-Amino-Actinomycin D (7-AAD) solution and fixed in 10% neutral buffered formalin solution for 15 minutes before analysis with the iQue-Intellicyt […]™ iQUE™ system. FIG. 3A is a graph of the concentration (nM) versus the mean fluorescence intensity.
For orientation: In flow cytometry, cells or beads pass a laser one at a time.
On to B1, for which the binding result was “binds”. On to B2, for which the binding result is given as “binds”. Consider B3, for which the binding result is “binds”.
